Target: T1, Ta-RNase H3 D78N (Thermovibrio ammonificans, UniProt E8T217 1-270, D78N)
T1 sequence: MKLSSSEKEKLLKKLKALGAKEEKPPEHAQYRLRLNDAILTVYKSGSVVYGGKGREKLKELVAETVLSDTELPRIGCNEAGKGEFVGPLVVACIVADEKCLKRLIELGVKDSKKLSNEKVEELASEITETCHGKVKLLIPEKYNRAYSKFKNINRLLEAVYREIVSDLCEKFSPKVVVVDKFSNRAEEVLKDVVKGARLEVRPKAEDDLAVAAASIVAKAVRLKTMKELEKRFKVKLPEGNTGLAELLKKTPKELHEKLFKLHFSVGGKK
Experiment: X-ray crystallography (2.1 A); Mg2+ (metal ion A only); sulfate; EMSA: 10% native TAE polyacrylamide gel, binding buffer not given in the material; crystals: 0.2 M ammonium sulfate, 0.1 M BisTris pH 5.5, 25% PEG 3350, 10 mM spermine tetrahydrochloride, protein:substrate 1:1.2
Settings: protein: recombinant; tags: N-terminal His-SUMO tag removed with SENP; extra N-terminal Ser0 before Met1 (cloning artifact); blunt

B1: 19-bp RNA/DNA hybrid (DNA:RNA)
RNA: GAGUGCGACACCUGAUUCC
DNA: GGAATCAGGTGTCGCACTC
- binding result: binds
